Where two headings read alike, the source gives them in different places.

In data set [1] the target is T1, SP_0782 (Streptococcus pneumoniae, UniProt A0A0H2UPA7 7-79). As to the kind of experiment: ITC. A general note: ITC needs no label: the signal is the heat of the interaction.
Data set [2] has as its target T1, SP_0782. The experiment in a line: X-ray crystallography.
Data set [3] concerns the target T1, SP_0782. The experiment in a line: ITC. This is another data set of the same source.
Data set [4] deals with the molecule itself. The experiment in a line: SEC-MALS.

A word on the Kd: it is the free concentration of one partner at which half of the binding sites on the other are occupied at equilibrium, for simple one-to-one binding. A lower Kd goes with a tighter complex. As for TTTTTTTTTTTT (ssDNA) [dT12], the equilibrium dissociation constant (Kd) in data set [1] was determined as 0.0206 µM.
As to TCTTCC (ssDNA) [dTCTTCC], the binding result in data set [2] was “binds”.
TTTTTT (ssDNA) [dT6] yielded a dissociation constant Kd in data set [3] of 26.8 µM. This lies in the double-digit micromolar range.

B1: SP_0782 (7–79) W30A mutant (domain or fragment, Streptococcus pneumoniae, UniProt A0A0H2UPA7 7-79, looked up)
chain: KKMAEFTFEIEEHLLTLSENEKGATKEINRVSFNGAPAKFDIRAWSPDHTKMGKGITLSNEEFQTMVDAFKGN
Broadly, the stoichiometry N is a count of units in the complex or per binding partner. Take B1: the “stoichiometry N” value in data set [4] was 2.

B2: SP_0782 (7–79) wild-type from Streptococcus pneumoniae (domain or fragment, UniProt A0A0H2UPA7 7-79, looked up)
chain: KKMAEFTFEIEEHLLTLSENEKGWTKEINRVSFNGAPAKFDIRAWSPDHTKMGKGITLSNEEFQTMVDAFKGN
For the molecule B2, the “stoichiometry N” value in data set [4] worked out at 2.

Values taken from paper PMC7145681 (Nucleic Acids Research, 2019).
